biological target: 9-fluorenylmethyloxycarbonyl (Fmoc)-glycyl-prolyl-glutamyl-glycyl-isoleucyl-alanyl-glycyl-tryptophanyl-glycine (Gly-Pro-Gln-Gly-Ile-Ala-Gly-Trp-Gly) (Artificial Sequence); conditions: scale: fold

| Substance | degradation rate of Fmoc-… per unit weight of enzyme and unit time (first 15 minutes, RP-HPLC) |
| --- | --- |
| aminopeptidase-1 (enzyme) | 14.2 |
| carboxypeptidase A (enzyme) | 38.8 |
| collagenase (enzyme) | 26.9 |

Reference: patent publication US20050054026A1
